Assay results reported in paper PMC4949553.

Columns and labels:
[1] = western blot, soluble plus insoluble intracellular fractions; details: glycan lost; control: G392E NS
[2] = non-denaturing PAGE and western blot, COS-7; details: glycan lost
[3] = polymer sandwich ELISA of cell lysates; details: glycan lost
[4] = western densitometry, insoluble fraction, MG132 treatment; details: glycan lost; control: G392E NS
[5] = 35S pulse-chase, total intracellular NS up to 24 h; details: glycan lost; control: G392E NS
[6] = SDS/PAGE western blot densitometry of insoluble fraction; details: glycan lost; control: wild type NS

B1: G392E neuroserpin (G392E NS): G392E/N321A (protein)
parent chain: MAFLGLFSLLVLQSMATGATFPEEAIADLSVNMYNRLRATGEDENILFSPLSIALAMGMMELGAQGSTQKEIRHSMGYDSLKNGEEFSFLKEFSNMVTAKESQYVMKIANSLFVQNGFHVNEEFLQMMKKYFNAAVNHVDFSQNVAVANYINKWVENNTNNLVKDLVSPRDFDAATYLALINAVYFKGNWKSQFRPENTRTFSFTKDDESEVQIPMMYQQGEFYYGEFSDGSNEAGGIYQVLEIPYEGDEISMMLVLSRQEVPLATLEPLVKAQLVEEWANSVKKQKVEVYLPRFTVEQEIDLKDVLKALGITEIFIKDANLTGLSDNKEIFLSKAIHKSFLEVNEEGSEAAAVSGMIAISRMAVLYPQVIVDHPFFFLIRNRRTGTILFMERVMHPETMNTSGHDFEEL
[1]
  localisation_or_trafficking: increases
[2]; control: G392E NS
  oligomerisation: increases
[3]; control: G392E NS
  oligomerisation: increases
[4]
  other: insoluble NS accumulating under proteasome inhibition: increases

B2: G392E neuroserpin (G392E NS): G392E/N401A (protein)
parent chain: MAFLGLFSLLVLQSMATGATFPEEAIADLSVNMYNRLRATGEDENILFSPLSIALAMGMMELGAQGSTQKEIRHSMGYDSLKNGEEFSFLKEFSNMVTAKESQYVMKIANSLFVQNGFHVNEEFLQMMKKYFNAAVNHVDFSQNVAVANYINKWVENNTNNLVKDLVSPRDFDAATYLALINAVYFKGNWKSQFRPENTRTFSFTKDDESEVQIPMMYQQGEFYYGEFSDGSNEAGGIYQVLEIPYEGDEISMMLVLSRQEVPLATLEPLVKAQLVEEWANSVKKQKVEVYLPRFTVEQEIDLKDVLKALGITEIFIKDANLTGLSDNKEIFLSKAIHKSFLEVNEEGSEAAAVSGMIAISRMAVLYPQVIVDHPFFFLIRNRRTGTILFMERVMHPETMNTSGHDFEEL
[1]
  localisation_or_trafficking: increases
[2]; control: G392E NS
  oligomerisation: increases
[5]
  degradation_or_half_life: no change
[3]; control: G392E NS
  oligomerisation: increases
[4]
  other: insoluble NS accumulating under proteasome inhibition: increases

B3: G392E neuroserpin (G392E NS): G392E/N157A (protein)
parent chain: MAFLGLFSLLVLQSMATGATFPEEAIADLSVNMYNRLRATGEDENILFSPLSIALAMGMMELGAQGSTQKEIRHSMGYDSLKNGEEFSFLKEFSNMVTAKESQYVMKIANSLFVQNGFHVNEEFLQMMKKYFNAAVNHVDFSQNVAVANYINKWVENNTNNLVKDLVSPRDFDAATYLALINAVYFKGNWKSQFRPENTRTFSFTKDDESEVQIPMMYQQGEFYYGEFSDGSNEAGGIYQVLEIPYEGDEISMMLVLSRQEVPLATLEPLVKAQLVEEWANSVKKQKVEVYLPRFTVEQEIDLKDVLKALGITEIFIKDANLTGLSDNKEIFLSKAIHKSFLEVNEEGSEAAAVSGMIAISRMAVLYPQVIVDHPFFFLIRNRRTGTILFMERVMHPETMNTSGHDFEEL
[1]
  localisation_or_trafficking: increases
[2]; control: G392E NS
  oligomerisation: increases

B4: neuroserpin (NS), wild type: N157A (protein)
parent chain: MAFLGLFSLLVLQSMATGATFPEEAIADLSVNMYNRLRATGEDENILFSPLSIALAMGMMELGAQGSTQKEIRHSMGYDSLKNGEEFSFLKEFSNMVTAKESQYVMKIANSLFVQNGFHVNEEFLQMMKKYFNAAVNHVDFSQNVAVANYINKWVENNTNNLVKDLVSPRDFDAATYLALINAVYFKGNWKSQFRPENTRTFSFTKDDESEVQIPMMYQQGEFYYGEFSDGSNEAGGIYQVLEIPYEGDEISMMLVLSRQEVPLATLEPLVKAQLVEEWANSVKKQKVEVYLPRFTVEQEIDLKDVLKALGITEIFIKDANLTGLSDNKEIFLSKAIHKSFLEVNEEGSEAAAVSGMIAISRMAVLYPQVIVDHPFFFLIRNRRTGTILFMGRVMHPETMNTSGHDFEEL
[2]; control: wild type NS
  oligomerisation: increases
[3]; control: wild type NS
  oligomerisation: increases

B5: neuroserpin (NS), wild type: N321A (protein)
parent chain: MAFLGLFSLLVLQSMATGATFPEEAIADLSVNMYNRLRATGEDENILFSPLSIALAMGMMELGAQGSTQKEIRHSMGYDSLKNGEEFSFLKEFSNMVTAKESQYVMKIANSLFVQNGFHVNEEFLQMMKKYFNAAVNHVDFSQNVAVANYINKWVENNTNNLVKDLVSPRDFDAATYLALINAVYFKGNWKSQFRPENTRTFSFTKDDESEVQIPMMYQQGEFYYGEFSDGSNEAGGIYQVLEIPYEGDEISMMLVLSRQEVPLATLEPLVKAQLVEEWANSVKKQKVEVYLPRFTVEQEIDLKDVLKALGITEIFIKDANLTGLSDNKEIFLSKAIHKSFLEVNEEGSEAAAVSGMIAISRMAVLYPQVIVDHPFFFLIRNRRTGTILFMGRVMHPETMNTSGHDFEEL
[2]; control: wild type NS
  oligomerisation: increases
[3]; control: wild type NS
  oligomerisation: increases

B6: neuroserpin (NS), wild type: N157A/N321A (protein)
parent chain: MAFLGLFSLLVLQSMATGATFPEEAIADLSVNMYNRLRATGEDENILFSPLSIALAMGMMELGAQGSTQKEIRHSMGYDSLKNGEEFSFLKEFSNMVTAKESQYVMKIANSLFVQNGFHVNEEFLQMMKKYFNAAVNHVDFSQNVAVANYINKWVENNTNNLVKDLVSPRDFDAATYLALINAVYFKGNWKSQFRPENTRTFSFTKDDESEVQIPMMYQQGEFYYGEFSDGSNEAGGIYQVLEIPYEGDEISMMLVLSRQEVPLATLEPLVKAQLVEEWANSVKKQKVEVYLPRFTVEQEIDLKDVLKALGITEIFIKDANLTGLSDNKEIFLSKAIHKSFLEVNEEGSEAAAVSGMIAISRMAVLYPQVIVDHPFFFLIRNRRTGTILFMGRVMHPETMNTSGHDFEEL
[6]
  other: amount in insoluble intracellular fraction: increases
[2]; control: wild type NS
  oligomerisation: increases
[3]; control: wild type NS
  oligomerisation: increases
